± gives the standard deviation of the averaged measurements.
Test system: ATP
Test: switch fluorescence ratio, 500 uM ATP over buffer (Cy3 cluster intensity, sum of 5 cycles each) (fold (ratio)); higher = stronger signal-on switching upon ATP binding; sequences stand for … in TCGTCGGCAGCGTCAGATGTGTATAAGAGACAGTTTTTTTTTTTTTTTTTTTTTTTTT…TC
Details: aptamer strand: ATP DNA aptamer (quencher-CACCTGGGGGAGTATTGCGGAGGAAGG + anchor), 100 nM annealed; ATP concentration: 500 uM
Method in brief: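 For every switch-domain sequence, the fluorescence ratio is the mean of per-cluster values, each being summed target-cycle Cy3 intensity over summed buffer-cycle Cy3 intensity. Clusters outside 100-1000 RFU were excluded. On a modified Illumina MiSeq flow-cell, the Cy3-labelled switching-strand clusters were annealed to 100 nM quencher-labelled ATP aptamer, imaged in selection buffer and then after 15 min with 500 uM ATP at 22 °C. Five such cycles were run, with NaOH stripping and re-annealing between them.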
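Further: ATP exposure 15 min at 22 °C before imaging.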

Sequence | switch fluorescence ratio
CGTTGGGTCC | 0.987 ± 0.029
CGTTGGGTTT | 1.03 ± 0.054
CGTTGGTCAG | 1.02 ± 0.032
CGTTGGTGGT | 0.99 ± 0.031
CGTTGTACTT | 1.01 ± 0.052
CGTTGTAGGA | 0.999 ± 0.016
CGTTGTAGGG | 0.989 ± 0.01
CGTTGTCATC | 1.01 ± 0.06
CGTTGTCATT | 0.972 ± 0.036
CGTTGTCTAG | 0.9713 ± 0.005
CGTTGTTAGC | 0.992 ± 0.022
CGTTGTTGTT | 0.989 ± 0.045
CGTTTAAGTA | 0.973 ± 0.019
CGTTTACTTA | 1.02 ± 0.02
CGTTTAGGTT | 1 ± 0.017
CGTTTCAGCG | 0.952 ± 0.051
CGTTTCGTGC | 0.9919 ± 0.003
CGTTTGGACG | 0.989 ± 0.079
CGTTTGGGGG | 0.987 ± 0.021
CGTTTGGTCT | 1 ± 0.051
CGTTTGGTGG | 1.01 ± 0.032
CGTTTGTGAG | 1 ± 0.0092
CGTTTGTGGG | 0.984 ± 0.034
CGTTTTAGAG | 1.01 ± 0.016
CGTTTTCCGA | 1.01 ± 0.032

Sequence | switch fluorescence ratio
CGTTTTCGGA | 0.982 ± 0.032
CGTTTTGATA | 1.01 ± 0.012
CGTTTTGATT | 0.997 ± 0.013
CGTTTTGGGC | 1.04 ± 0.033
CGTTTTGGGG | 0.999 ± 0.032
CGTTTTTCCG | 1.08 ± 0.032
CGTTTTTGGC | 0.992 ± 0.074
CTAAAAGGGA | 0.95 ± 0.033
CTAAAAGTGT | 0.989 ± 0.034
CTAAACAGAA | 0.9996 ± 0.0027
CTAAACGGTG | 1.03 ± 0.012
CTAAAGACTC | 1.19 ± 0.046
CTAAAGGGGA | 1.08 ± 0.12
CTAAAGGGGG | 0.998 ± 0.029
CTAAATAGGG | 1.01 ± 0.049
CTAAATCGGT | 0.987 ± 0.061
CTAAATGGGA | 1.01 ± 0.029
CTAAATTAGT | 0.995 ± 0.042
CTAAATTGCC | 0.9991 ± 0.0056
CTAACATTTT | 1.01 ± 0.018
CTAACCAGCC | 1.6 ± 0.13
CTAACCGGTA | 1.006 ± 0.0063
CTAACTGGTG | 1.2 ± 0.055
CTAAGAGGAC | 0.9921 ± 0.0033
CTAAGAGGCG | 0.988 ± 0.024

Sequence | switch fluorescence ratio
CTAAGCGGGA | 1.05 ± 0.016
CTAAGGATGC | 1.03 ± 0.021
CTAAGGCGGG | 1.013 ± 0.0072
CTAAGGGGAT | 1.09 ± 0.15
CTAAGTTCCG | 1.015 ± 0.01
CTAATATTAT | 1.01 ± 0.027
CTAATCGGTT | 0.97 ± 0.029
CTAATTAAGT | 0.973 ± 0.028
CTAATTATGG | 1.04 ± 0.014
CTAATTGAGT | 1.01 ± 0.014
CTAATTTTTT | 1.01 ± 0.025
CTACCTCCGA | 3.16 ± 0.29
CTACTATAGG | 0.9889 ± 0.0064
CTAGAAAGC | 1.02 ± 0.02
CTAGCAACGC | 1.08 ± 0.028
CTAGCCAATT | 1.02 ± 0.016
CTAGCCCAGC | 1.02 ± 0.026
CTAGCCGGGA | 1.017 ± 0.009
CTAGCCTCTT | 0.995 ± 0.027
CTAGCCTGCT | 0.994 ± 0.038
CTAGGACAGC | 0.994 ± 0.012
CTAGGCAGTT | 1.01 ± 0.012
CTAGGCTGTA | 1 ± 0.021
CTAGGGAGGT | 0.9701 ± 0.002
CTAGGGCTTC | 0.979 ± 0.02

Sequence | switch fluorescence ratio
CTAGGGGCGT | 0.979 ± 0.019
CTAGGGGGGC | 1 ± 0.093
CTAGGTGGAC | 1.01 ± 0.012
CTAGTAGATC | 1.04 ± 0.014
CTAGTAGTGT | 1.01 ± 0.022
CTAGTCGCCG | 1.003 ± 0.0097
CTAGTCTAAT | 1.01 ± 0.039
CTAGTGCTCG | 0.971 ± 0.022
CTAGTTAAGC | 0.9892 ± 0.0035
CTAGTTCTTA | 1.05 ± 0.065
CTAGTTGGTT | 0.971 ± 0.028
CTATAAAAGT | 0.9983 ± 0.0076
CTATAAGGG | 0.985 ± 0.031
CTATAGGAAA | 1.03 ± 0.026
CTATAGGTAA | 0.996 ± 0.019
CTATAGTAGG | 0.9849 ± 0.0029
CTATAGTCAA | 1.38 ± 0.026
CTATATGAAG | 0.9802 ± 0.0067
CTATCCTCTT | 0.972 ± 0.01
CTATCGGGGT | 0.993 ± 0.015
CTATCGGTGA | 0.9767 ± 0.0019
CTATGAATTT | 0.995 ± 0.011
CTATGACAGC | 1.01 ± 0.016
CTATGATCTG | 0.989 ± 0.065
CTATGGCCGG | 0.969 ± 0.024

Sequence | switch fluorescence ratio
CTATGGCGCA | 1.03 ± 0.067
CTATGGGGGG | 0.993 ± 0.035
CTATGGTATC | 1.02 ± 0.015
CTATGTGGTG | 1.02 ± 0.054
CTATTAATAC | 1.63 ± 0.096
CTATTAGGGA | 0.9728 ± 0.0092
CTATTCAGGG | 1.02 ± 0.066
CTATTCGTGG | 0.973 ± 0.029
CTATTGGCAA | 1.06 ± 0.022
CTATTGGGCT | 1.01 ± 0.012
CTATTTAGCC | 1.02 ± 0.063
CTATTTCTGA | 0.931 ± 0.027
CTATTTTGAT | 0.979 ± 0.024
CTATTTTTAG | 0.9968 ± 0.0021
CTCAGCGGGT | 1.49 ± 0.68
CTCAGGATGT | 1.06 ± 0.026
CTCAGTTTTA | 1.002 ± 0.0083
CTCATATGCA | 1 ± 0.029
CTCATATTTA | 1.01 ± 0.019
CTCATTGGGC | 0.991 ± 0.027
CTCATTTGAC | 1.032 ± 0.0056
CTCCAGAGGG | 2.47 ± 1.8
CTCCATTGAT | 1.01 ± 0.042
CTCGAGAAGA | 1.01 ± 0.022
CTCGATGGGA | 0.974 ± 0.061

Sequence | switch fluorescence ratio
CTCGATTGTA | 0.999 ± 0.048
CTCGGCCACT | 2.26 ± 1.6
CTCGGGGGTA | 0.963 ± 0.031
CTCGGTTTGG | 1.01 ± 0.028
CTCGTCTGAG | 1 ± 0.023
CTCGTTTAGA | 1.022 ± 0.0084
CTCTCTTTGA | 0.963 ± 0.015
CTCTGACGGC | 1.12 ± 0.12
CTCTGATGGG | 0.986 ± 0.021
CTCTGGCGTT | 1.51 ± 0.66
CTCTTAGGAT | 1.02 ± 0.023
CTCTTGGGAA | 0.992 ± 0.014
CTCTTGGGGC | 0.987 ± 0.041
CTCTTGGGGT | 0.997 ± 0.021
CTCTTTTGGT | 0.975 ± 0.02
CTGAAAACTA | 1.02 ± 0.059
CTGAAATGGT | 0.9928 ± 0.0041
CTGAATTAGG | 0.988 ± 0.02
CTGACGGTAG | 1.03 ± 0.022
CTGACGTTTT | 1.18 ± 0.2
CTGACTCGGT | 1.12 ± 0.013
CTGACTTACG | 1.11 ± 0.016
CTGACTTCAT | 1.0521 ± 0.00045
CTGAGAGACA | 0.991 ± 0.04
CTGAGAGATG | 0.9914 ± 0.0072

Sequence | switch fluorescence ratio
CTGAGCTGCA | 1.12 ± 0.036
CTGAGGAGGA | 1.031 ± 0.0076
CTGAGGGCG | 1.045 ± 0.0058
CTGAGGGGGC | 1.02 ± 0.016
CTGAGGTATG | 1.023 ± 0.0057
CTGATAAGCG | 0.991 ± 0.039
CTGATATGTA | 0.969 ± 0.045
CTGATATTGT | 0.9844 ± 0.0066
CTGATGAGTT | 0.982 ± 0.019
CTGATTCCTG | 1.01 ± 0.04
CTGCAGCGTC | 1.29 ± 0.053
CTGCGAATAA | 1.4 ± 0.098
CTGCGGCTGT | 1.02 ± 0.0053
CTGCGGGTGC | 1.31 ± 0.2
CTGCGGTGGG | 1.006 ± 0.0051
CTGCGTCGTT | 0.9967 ± 0.004
CTGCTCACAC | 1.22 ± 0.046
CTGCTTTGTC | 0.941 ± 0.0058
CTGGACCTTC | 1.66 ± 0.043
CTGGAGGGA | 1 ± 0.07
CTGGAGGGAC | 1.06 ± 0.026
CTGGAGTCTG | 1.11 ± 0.086
CTGGATTGGG | 0.98 ± 0.028
CTGGCAGGAA | 1.01 ± 0.051
CTGGCTGGTT | 1.01 ± 0.013

Sequence | switch fluorescence ratio
CTGGGAAGGC | 1.13 ± 0.04
CTGGGACCAG | 1.019 ± 0.007
CTGGGACGAT | 0.998 ± 0.03
CTGGGAGAAT | 1 ± 0.024
CTGGGAGGCA | 0.9871 ± 0.0098
CTGGGCCGGT | 1.02 ± 0.063
CTGGGCTTAG | 0.982 ± 0.037
CTGGGGAAAA | 1.57 ± 0.94
CTGGGGCCTA | 0.982 ± 0.023
CTGGGGGCAG | 1.036 ± 0.0073
CTGGGGGCTC | 1.01 ± 0.018
CTGGGGGTGT | 1.05 ± 0.04
CTGGGGTAGT | 1.03 ± 0.022
CTGGGGTGTG | 1.01 ± 0.039
CTGGGTAGGC | 0.992 ± 0.018
CTGGGTATAG | 1.02 ± 0.032
CTGGGTATTC | 1.03 ± 0.032
CTGGGTCACA | 1.02 ± 0.011
CTGGGTCGGC | 0.965 ± 0.04
CTGGGTTCCT | 1.02 ± 0.024
CTGGGTTGTT | 1.0204 ± 0.00077
CTGGGTTTAA | 1.02 ± 0.013
CTGGGTTTTT | 0.992 ± 0.03
CTGGTAACCG | 1 ± 0.06
CTGGTAGACT | 0.992 ± 0.023
